Assay results published in patent publication US20160083428A1 (CARMEL HAIFA UNIVERSITY ECONOMIC, published 2016).
Ends that are not written are not given here. * marks the point of attachment. Biotin = O=C1N[C@H]2[C@H](CS[C@H]2CCCCC(=O)*)N1

Molecular target: eukaryotic elongation factor 2 (eEF2) (rat, UniProt P05197 2-858)
Assay: pull-down from rat brain homogenate with streptavidin agarose, Western blot

B1: peptide 1 (Ac-RRQRYTPFPLGFE-Lys(Biotin)-NH2-OH), peptide derived from the G-H loop of ephrinA4 (peptide)
peptide: Ac-RRQRYTPFPLGFEK(Biotin)
modifications: not fully specified; printed as Ac-RRQRYTPFPLGFE-Lys(Biotin)-NH2-OH
notes: also called pep-ephrinA4; ephrinA4 peptide
B1: no binding (tested: 20 micrograms).
